Results published in publication PMC2787667 (Cellular signalling, 2009).

Tests used:
Assay in all cases: FRET or BRET
[1] = target: hFSHR(Y110A,H485A,S488A,M492A,I495A,F504A), as Rluc and GFP2 fusion proteins (human) (UniProt P23945)
[2] = target: hFSHR(H485A,S488A,M492A,I495A,F504A), as Rluc and GFP2 fusion proteins (human) (UniProt P23945)
FRET or BRET = target: the molecule itself

Chain of hFSHR(Y110A,H485A,S488A,M492A,I495A,F504A), as Rluc and GFP2 fusion proteins (P23945 18-695 Y110A/H485A/S488A/M492A/I495A, stated change not applied): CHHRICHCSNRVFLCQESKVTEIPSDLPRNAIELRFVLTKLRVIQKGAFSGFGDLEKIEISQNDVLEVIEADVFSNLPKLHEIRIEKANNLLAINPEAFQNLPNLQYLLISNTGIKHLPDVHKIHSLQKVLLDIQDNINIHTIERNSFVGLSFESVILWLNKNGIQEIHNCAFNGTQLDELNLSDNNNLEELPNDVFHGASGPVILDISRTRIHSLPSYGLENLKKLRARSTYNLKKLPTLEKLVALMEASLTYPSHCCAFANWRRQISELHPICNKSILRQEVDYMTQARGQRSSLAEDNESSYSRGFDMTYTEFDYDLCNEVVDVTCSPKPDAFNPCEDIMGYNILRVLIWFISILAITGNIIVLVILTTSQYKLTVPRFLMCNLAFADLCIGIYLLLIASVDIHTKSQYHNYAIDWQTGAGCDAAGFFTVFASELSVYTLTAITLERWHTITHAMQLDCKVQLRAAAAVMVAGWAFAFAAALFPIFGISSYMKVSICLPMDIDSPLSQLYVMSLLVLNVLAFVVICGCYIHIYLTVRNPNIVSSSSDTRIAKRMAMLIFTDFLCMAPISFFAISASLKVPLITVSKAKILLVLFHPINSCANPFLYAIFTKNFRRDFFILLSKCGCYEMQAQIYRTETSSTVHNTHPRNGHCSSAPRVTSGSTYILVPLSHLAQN
Chain of hFSHR(H485A,S488A,M492A,I495A,F504A), as Rluc and GFP2 fusion proteins (P23945 18-695 H485A/S488A/M492A/I495A, stated change not applied): as the sequence (P23945 18-695 Y110A/H485A/S488A/M492A/I495A, stated change not applied) above, with A93Y counted along it

Molecule | BRET50 mut/BRET50 wt (FRET or BRET) [ratio] | also measured
hFSHR(Y110A,H485A,S488A,M492A,I495A,F504A), as Rluc and GFP2 fusion proteins (from UniProt P23945 18-695) (receptor) | – | BRET50 mut/BRET50 wt [1]: 1.29
hFSHR(H485A,S488A,M492A,I495A,F504A), as Rluc and GFP2 fusion proteins (from UniProt P23945 18-695) (receptor) | – | BRET50 mut/BRET50 wt [2]: 1.41
hFSHR(M490A,W494A,I495A), as Rluc and GFP2 fusion proteins (receptor, human, UniProt P23945 18-695, looked up) CHHRICHCSNRVFLCQESKVTEIPSDLPRNAIELRFVLTKLRVIQKGAFSGFGDLEKIEISQNDVLEVIEADVFSNLPKLHEIRIEKANNLLYINPEAFQNLPNLQYLLISNTGIKHLPDVHKIHSLQKVLLDIQDNINIHTIERNSFVGLSFESVILWLNKNGIQEIHNCAFNGTQLDELNLSDNNNLEELPNDVFHGASGPVILDISRTRIHSLPSYGLENLKKLRARSTYNLKKLPTLEKLVALMEASLTYPSHCCAFANWRRQISELHPICNKSILRQEVDYMTQARGQRSSLAEDNESSYSRGFDMTYTEFDYDLCNEVVDVTCSPKPDAFNPCEDIMGYNILRVLIWFISILAITGNIIVLVILTTSQYKLTVPRFLMCNLAFADLCIGIYLLLIASVDIHTKSQYHNYAIDWQTGAGCDAAGFFTVFASELSVYTLTAITLERWHTITHAMQLDCKVQLRHAASVAVMGAAFAFAAALFPIFGISSYMKVSICLPMDIDSPLSQLYVMSLLVLNVLAFVVICGCYIHIYLTVRNPNIVSSSSDTRIAKRMAMLIFTDFLCMAPISFFAISASLKVPLITVSKAKILLVLFHPINSCANPFLYAIFTKNFRRDFFILLSKCGCYEMQAQIYRTETSSTVHNTHPRNGHCSSAPRVTSGSTYILVPLSHLAQN | 1.5 | –
hFSHR(Y110A), full-length, as Rluc and GFP2 fusion proteins (receptor, human, UniProt P23945 18-695, looked up) CHHRICHCSNRVFLCQESKVTEIPSDLPRNAIELRFVLTKLRVIQKGAFSGFGDLEKIEISQNDVLEVIEADVFSNLPKLHEIRIEKANNLLAINPEAFQNLPNLQYLLISNTGIKHLPDVHKIHSLQKVLLDIQDNINIHTIERNSFVGLSFESVILWLNKNGIQEIHNCAFNGTQLDELNLSDNNNLEELPNDVFHGASGPVILDISRTRIHSLPSYGLENLKKLRARSTYNLKKLPTLEKLVALMEASLTYPSHCCAFANWRRQISELHPICNKSILRQEVDYMTQARGQRSSLAEDNESSYSRGFDMTYTEFDYDLCNEVVDVTCSPKPDAFNPCEDIMGYNILRVLIWFISILAITGNIIVLVILTTSQYKLTVPRFLMCNLAFADLCIGIYLLLIASVDIHTKSQYHNYAIDWQTGAGCDAAGFFTVFASELSVYTLTAITLERWHTITHAMQLDCKVQLRHAASVMVMGWIFAFAAALFPIFGISSYMKVSICLPMDIDSPLSQLYVMSLLVLNVLAFVVICGCYIHIYLTVRNPNIVSSSSDTRIAKRMAMLIFTDFLCMAPISFFAISASLKVPLITVSKAKILLVLFHPINSCANPFLYAIFTKNFRRDFFILLSKCGCYEMQAQIYRTETSSTVHNTHPRNGHCSSAPRVTSGSTYILVPLSHLAQN | 1.74 | –
hFSHR(I381A,V491A), as Rluc and GFP2 fusion proteins (receptor, human, UniProt P23945 18-695, looked up) CHHRICHCSNRVFLCQESKVTEIPSDLPRNAIELRFVLTKLRVIQKGAFSGFGDLEKIEISQNDVLEVIEADVFSNLPKLHEIRIEKANNLLYINPEAFQNLPNLQYLLISNTGIKHLPDVHKIHSLQKVLLDIQDNINIHTIERNSFVGLSFESVILWLNKNGIQEIHNCAFNGTQLDELNLSDNNNLEELPNDVFHGASGPVILDISRTRIHSLPSYGLENLKKLRARSTYNLKKLPTLEKLVALMEASLTYPSHCCAFANWRRQISELHPICNKSILRQEVDYMTQARGQRSSLAEDNESSYSRGFDMTYTEFDYDLCNEVVDVTCSPKPDAFNPCEDIMGYNILRVLIWFISILAITGNAIVLVILTTSQYKLTVPRFLMCNLAFADLCIGIYLLLIASVDIHTKSQYHNYAIDWQTGAGCDAAGFFTVFASELSVYTLTAITLERWHTITHAMQLDCKVQLRHAASVMAMGWIFAFAAALFPIFGISSYMKVSICLPMDIDSPLSQLYVMSLLVLNVLAFVVICGCYIHIYLTVRNPNIVSSSSDTRIAKRMAMLIFTDFLCMAPISFFAISASLKVPLITVSKAKILLVLFHPINSCANPFLYAIFTKNFRRDFFILLSKCGCYEMQAQIYRTETSSTVHNTHPRNGHCSSAPRVTSGSTYILVPLSHLAQN | 1.69 | –
hFSHR(W436A,W494A), as Rluc and GFP2 fusion proteins (receptor, human, UniProt P23945 18-695, looked up) CHHRICHCSNRVFLCQESKVTEIPSDLPRNAIELRFVLTKLRVIQKGAFSGFGDLEKIEISQNDVLEVIEADVFSNLPKLHEIRIEKANNLLYINPEAFQNLPNLQYLLISNTGIKHLPDVHKIHSLQKVLLDIQDNINIHTIERNSFVGLSFESVILWLNKNGIQEIHNCAFNGTQLDELNLSDNNNLEELPNDVFHGASGPVILDISRTRIHSLPSYGLENLKKLRARSTYNLKKLPTLEKLVALMEASLTYPSHCCAFANWRRQISELHPICNKSILRQEVDYMTQARGQRSSLAEDNESSYSRGFDMTYTEFDYDLCNEVVDVTCSPKPDAFNPCEDIMGYNILRVLIWFISILAITGNIIVLVILTTSQYKLTVPRFLMCNLAFADLCIGIYLLLIASVDIHTKSQYHNYAIDAQTGAGCDAAGFFTVFASELSVYTLTAITLERWHTITHAMQLDCKVQLRHAASVMVMGAIFAFAAALFPIFGISSYMKVSICLPMDIDSPLSQLYVMSLLVLNVLAFVVICGCYIHIYLTVRNPNIVSSSSDTRIAKRMAMLIFTDFLCMAPISFFAISASLKVPLITVSKAKILLVLFHPINSCANPFLYAIFTKNFRRDFFILLSKCGCYEMQAQIYRTETSSTVHNTHPRNGHCSSAPRVTSGSTYILVPLSHLAQN | 1.29 | –
hFSHR(I382A,V383A,M490A,V491A), as Rluc and GFP2 fusion proteins (receptor, human, UniProt P23945 18-695, looked up) CHHRICHCSNRVFLCQESKVTEIPSDLPRNAIELRFVLTKLRVIQKGAFSGFGDLEKIEISQNDVLEVIEADVFSNLPKLHEIRIEKANNLLYINPEAFQNLPNLQYLLISNTGIKHLPDVHKIHSLQKVLLDIQDNINIHTIERNSFVGLSFESVILWLNKNGIQEIHNCAFNGTQLDELNLSDNNNLEELPNDVFHGASGPVILDISRTRIHSLPSYGLENLKKLRARSTYNLKKLPTLEKLVALMEASLTYPSHCCAFANWRRQISELHPICNKSILRQEVDYMTQARGQRSSLAEDNESSYSRGFDMTYTEFDYDLCNEVVDVTCSPKPDAFNPCEDIMGYNILRVLIWFISILAITGNIAALVILTTSQYKLTVPRFLMCNLAFADLCIGIYLLLIASVDIHTKSQYHNYAIDWQTGAGCDAAGFFTVFASELSVYTLTAITLERWHTITHAMQLDCKVQLRHAASVAAMGWIFAFAAALFPIFGISSYMKVSICLPMDIDSPLSQLYVMSLLVLNVLAFVVICGCYIHIYLTVRNPNIVSSSSDTRIAKRMAMLIFTDFLCMAPISFFAISASLKVPLITVSKAKILLVLFHPINSCANPFLYAIFTKNFRRDFFILLSKCGCYEMQAQIYRTETSSTVHNTHPRNGHCSSAPRVTSGSTYILVPLSHLAQN | 0.934 | –
